Earlier results in US20090098130A1, “GLUCAGON-LIKE PROTEIN-1 RECEPTOR (GLP-1R) AGONIST COMPOUNDS” (priority 2007, published 2009).

Settings: after incubation with β-diketone

Molecule | enaminone absorbance (λmax=318 nm)
h38C2 IgG: humanized aldolase catalytic antibody h38c2 IgG1 (antibody, listed as Homo sapiens, V domains shown, (1)..(30) FR1; (1)..(23) FR1) VH: EVQLVESGGGLVQPGGSLRLSCAASGFTFSNYWMSWVRQSPEKGLEWVSEIRLRSDNYATHYAESVKGRFTISRDNSKNTLYLQMNSLRAEDTGIYYCKTYFYSFSYWGQGTLVTVSS VL: ELQMTQSPSSLSASVGDRVTITCRSSQSLLHTYGSPYLNWYLQKPGQSPKLLIYKVSNRFSGVPSRFSGSGSGTDFTLTISSLQPEDFAVYFCSQGTHLPYTFGGGTKVEIK | showed the characteristic enaminone absorbance
m38C2 IgG: mouse monoclonal aldolase antibody with a reactive lysine (antibody, listed as Mus musculus, V domains shown, (1)..(30) FR1; (1)..(23) FR1) VH: EVKLVESGGGLVQPGGTMKLSCEISGLTFRNYWMSWVRQSPEKGLEWVAEIRLRSDNYATHYAESVKGKFTISRDDSKSRLYLQMNSLRTEDTGIYYCKTYFYSFSYWGQGTLVTVSA VL: DVVMTQTPLSLPVRLGDQASISCRSSQSLLHTYGSPYLNWYLQKPGQSPKLLIYKVSNRFSGVPDRFSGSGSGTDFTLRISRVEAEDLGVYFCSQGTHLPYTFGGGTKLEIK | showed the characteristic enaminone absorbance
